According to patent publication US20220064316A1 (published 2022):

Tests used:
[1] = biological target: T1, human BCMA (B-cell maturation antigen) on cells (human, UniProt Q02223 1-184); assay: cell-based or functional assay
T1 sequence (looked up): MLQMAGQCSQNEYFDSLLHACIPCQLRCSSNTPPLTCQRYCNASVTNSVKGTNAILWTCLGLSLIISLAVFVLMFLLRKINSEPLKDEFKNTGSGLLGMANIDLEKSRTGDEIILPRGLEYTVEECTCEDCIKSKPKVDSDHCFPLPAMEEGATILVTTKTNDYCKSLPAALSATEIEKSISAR

[2] = biological target: T2, BCMA-Fc antigen (R&D Systems) (UniProt Q02223 1-54); assay: flow cytometry; BCMA-Fc staining of CAR-transduced JNL cells
T2 construct: also called BCMA fc fusion protein (R&D Systems, cat #193-BC-050); recombinant BCMA-Fc; not shown: Fc portion of the bought fusion protein
T2 sequence (looked up): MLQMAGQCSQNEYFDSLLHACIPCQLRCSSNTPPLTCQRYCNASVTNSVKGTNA
Protocol: Jurkat-NFAT-luciferase (JNL) cells transduced with BCMA CAR constructs were evaluated for activation in response to BCMA-expressing target cell lines. Small-scale viral supernatant samples were generated in HEK293T cells for transduction of JNL cells. On Day 3 following transduction, BCMA CAR-transduced JNL cells were incubated with target cells at an effector-to-target (E:T) ratio of 6:1. Target cell lines were: K562-BCMA (engineered to stably express BCMA), K562 (parental line), and BCMA positive multiple myeloma cell lines, NCI-H929 and RPMI 8226. JNL activation was measured using Bright-Glo substrate (Promega) on Day 4. CAR expression on transduced JNL was assessed on Day 7 with BCMA-Fc antigen and Biotin-Protein L reagent (Table 21).

B1: BCMA-14 CAR (139113) (other)
chain: EVQLVETGGGLVQPGGSLRLSCAVSGFALSNHGMSWVRRAPGKGLEWVSGIVYSGSTYYAASVKGRFTISRDNSRNTLYLQMNSLRPEDTAIYYCSAHGGESDVWGQGTTVTVSSASGGGGSGGRASGGGGSETTLTQSPATLSVSPGERATLSCRASQSVGSNLAWYQQKPGQGPRLLIYGASTRATGIPARFSGSGSGTEFTLTISSLQPEDFAVYYCQQYNDWLPVTFGQGTKVEIKTTTPAPRPPTPAPTIASQPLSLRPEACRPAAGGAVHTRGLDFACDIYIWAPLAGTCGVLLLSLVITLYCKRGRKKLLYIFKQPFMRPVQTTQEEDGCSCRFPEEEEGGCELRVKFSRSADAPAYKQGQNQLYNELNLGRREEYDVLDKRRGRDPEMGGKPRRKNPQEGLYNELQKDKMAEAYSEIGMKGERRRGKGHDGLYQGLSTATKDTYDALHMQALPPR
notes: also called HJ64-62PB
JNL binding assay, ratio to K562; K562-BCMA [1]: 2.81 ratio | JNL binding assay, ratio to K562; NCI-H929 [1]: 2.65 ratio | JNL binding assay, ratio to K562; RPMI 8226 [1]: 3.31 ratio | Proliferation CD3, ratio to no target; K562-BCMA [1]: 4.12 ratio | Proliferation CD3, ratio to no target; KMS11-luc [1]: 3.42 ratio | Proliferation CD3, ratio to no target; NCI-H929 [1]: 3.86 ratio | Proliferation CD3, ratio to no target; RPMI 8226 [1]: 3.93 ratio | Proliferation CD4, ratio to no target; K562-BCMA [1]: 5.73 ratio | Proliferation CD4, ratio to no target; KMS11-luc [1]: 3.97 ratio | Proliferation CD4, ratio to no target; NCI-H929 [1]: 5.07 ratio | Proliferation CD4, ratio to no target; RPMI 8226 [1]: 4.84 ratio | Proliferation CD8, ratio to no target; K562-BCMA [1]: 2.65 ratio | Proliferation CD8, ratio to no target; KMS11-luc [1]: 2.83 ratio | Proliferation CD8, ratio to no target; NCI-H929 [1]: 2.73 ratio | Proliferation CD8, ratio to no target; RPMI 8226 [1]: 3.03 ratio | % CAR+ (BCMA-Fc detection) [2]: 31.8%

B2: BCMA-9 CAR (139108) (other)
chain: QVQLVESGGGLVKPGGSLRLSCAASGFTFSDYYMSWIRQAPGKGLEWVSYISSSGSTIYYADSVKGRFTISRDNAKNSLYLQMNSLRAEDTAVYYCARESGDGMDVWGQGTTVTVSSASGGGGSGGRASGGGGSDIQMTQSPSSLSASVGDRVTITCRASQSISSYLNWYQQKPGKAPKLLIYAASSLQSGVPSRFSGSGSGTDFTLTISSLQPEDFATYYCQQSYTLAFGQGTKVDIKTTTPAPRPPTPAPTIASQPLSLRPEACRPAAGGAVHTRGLDFACDIYIWAPLAGTCGVLLLSLVITLYCKRGRKKLLYIFKQPFMRPVQTTQEEDGCSCRFPEEEEGGCELRVKFSRSADAPAYKQGQNQLYNELNLGRREEYDVLDKRRGRDPEMGGKPRRKNPQEGLYNELQKDKMAEAYSEIGMKGERRRGKGHDGLYQGLSTATKDTYDALHMQALPPR
notes: also called OG62-93QB
JNL binding assay, ratio to K562; K562-BCMA [1]: 1.59 ratio | JNL binding assay, ratio to K562; NCI-H929 [1]: 1.99 ratio | JNL binding assay, ratio to K562; RPMI 8226 [1]: 1.54 ratio | Proliferation CD3, ratio to no target; K562-BCMA [1]: 1.51 ratio | Proliferation CD3, ratio to no target; KMS11-luc [1]: 1.66 ratio | Proliferation CD3, ratio to no target; NCI-H929 [1]: 4.63 ratio | Proliferation CD3, ratio to no target; RPMI 8226 [1]: 2.5 ratio | Proliferation CD4, ratio to no target; K562-BCMA [1]: 1.59 ratio | Proliferation CD4, ratio to no target; KMS11-luc [1]: 1.49 ratio | Proliferation CD4, ratio to no target; NCI-H929 [1]: 4.45 ratio | Proliferation CD4, ratio to no target; RPMI 8226 [1]: 2.24 ratio | Proliferation CD8, ratio to no target; K562-BCMA [1]: 1.43 ratio | Proliferation CD8, ratio to no target; KMS11-luc [1]: 1.83 ratio | Proliferation CD8, ratio to no target; NCI-H929 [1]: 4.79 ratio | Proliferation CD8, ratio to no target; RPMI 8226 [1]: 2.76 ratio | % CAR+ (BCMA-Fc detection) [2]: 54.7%

B3: BCMA-13 CAR (139112) (other)
chain: QVQLVESGGGLVQPGGSLRLSCAVSGFALSNHGMSWVRRAPGKGLEWVSGIVYSGSTYYAASVKGRFTISRDNSRNTLYLQMNSLRPEDTAIYYCSAHGGESDVWGQGTTVTVSSASGGGGSGGRASGGGGSDIRLTQSPSPLSASVGDRVTITCQASEDINKFLNWYHQTPGKAPKLLIYDASTLQTGVPSRFSGSGSGTDFTLTINSLQPEDIGTYYCQQYESLPLTFGGGTKVEIKTTTPAPRPPTPAPTIASQPLSLRPEACRPAAGGAVHTRGLDFACDIYIWAPLAGTCGVLLLSLVITLYCKRGRKKLLYIFKQPFMRPVQTTQEEDGCSCRFPEEEEGGCELRVKFSRSADAPAYKQGQNQLYNELNLGRREEYDVLDKRRGRDPEMGGKPRRKNPQEGLYNELQKDKMAEAYSEIGMKGERRRGKGHDGLYQGLSTATKDTYDALHMQALPPR
notes: also called B13; KG66-98AB
JNL binding assay, ratio to K562; K562-BCMA [1]: 3.74 ratio | JNL binding assay, ratio to K562; NCI-H929 [1]: 2.68 ratio | JNL binding assay, ratio to K562; RPMI 8226 [1]: 3.66 ratio | Proliferation CD3, ratio to no target; K562-BCMA [1]: 3.47 ratio | Proliferation CD3, ratio to no target; KMS11-luc [1]: 3.2 ratio | Proliferation CD3, ratio to no target; NCI-H929 [1]: 3.46 ratio | Proliferation CD3, ratio to no target; RPMI 8226 [1]: 3.48 ratio | Proliferation CD4, ratio to no target; K562-BCMA [1]: 5.4 ratio | Proliferation CD4, ratio to no target; KMS11-luc [1]: 3.84 ratio | Proliferation CD4, ratio to no target; NCI-H929 [1]: 5.05 ratio | Proliferation CD4, ratio to no target; RPMI 8226 [1]: 4.44 ratio | Proliferation CD8, ratio to no target; K562-BCMA [1]: 2.34 ratio | Proliferation CD8, ratio to no target; KMS11-luc [1]: 2.79 ratio | Proliferation CD8, ratio to no target; NCI-H929 [1]: 2.53 ratio | Proliferation CD8, ratio to no target; RPMI 8226 [1]: 2.86 ratio | % CAR+ (BCMA-Fc detection) [2]: 32.7%

B4: BCMA-15 CAR (139114) (other)
chain: EVQLVESGGGLVQPGGSLRLSCAVSGFALSNHGMSWVRRAPGKGLEWVSGIVYSGSTYYAASVKGRFTISRDNSRNTLYLQMNSLRPEDTAIYYCSAHGGESDVWGQGTTVTVSSASGGGGSGGRASGGGGSEIVLTQSPGTLSLSPGERATLSCRASQSIGSSSLAWYQQKPGQAPRLLMYGASSRASGIPDRFSGSGSGTDFTLTISRLEPEDFAVYYCQQYAGSPPFTFGQGTKVEIKTTTPAPRPPTPAPTIASQPLSLRPEACRPAAGGAVHTRGLDFACDIYIWAPLAGTCGVLLLSLVITLYCKRGRKKLLYIFKQPFMRPVQTTQEEDGCSCRFPEEEEGGCELRVKFSRSADAPAYKQGQNQLYNELNLGRREEYDVLDKRRGRDPEMGGKPRRKNPQEGLYNELQKDKMAEAYSEIGMKGERRRGKGHDGLYQGLSTATKDTYDALHMQALPPR
notes: also called B15; PY43-48LB
JNL binding assay, ratio to K562; K562-BCMA [1]: 2.91 ratio | JNL binding assay, ratio to K562; NCI-H929 [1]: 2.79 ratio | JNL binding assay, ratio to K562; RPMI 8226 [1]: 3.49 ratio | Proliferation CD3, ratio to no target; K562-BCMA [1]: 3.94 ratio | Proliferation CD3, ratio to no target; KMS11-luc [1]: 3.51 ratio | Proliferation CD3, ratio to no target; NCI-H929 [1]: 4.08 ratio | Proliferation CD3, ratio to no target; RPMI 8226 [1]: 3.73 ratio | Proliferation CD4, ratio to no target; K562-BCMA [1]: 4.87 ratio | Proliferation CD4, ratio to no target; KMS11-luc [1]: 3.82 ratio | Proliferation CD4, ratio to no target; NCI-H929 [1]: 4.82 ratio | Proliferation CD4, ratio to no target; RPMI 8226 [1]: 4.24 ratio | Proliferation CD8, ratio to no target; K562-BCMA [1]: 1.89 ratio | Proliferation CD8, ratio to no target; KMS11-luc [1]: 2.73 ratio | Proliferation CD8, ratio to no target; NCI-H929 [1]: 2.42 ratio | Proliferation CD8, ratio to no target; RPMI 8226 [1]: 2.51 ratio | % CAR+ (BCMA-Fc detection) [2]: 36.9%

B5: BCMA-12 CAR (139111) (other)
chain: EVQLLESGGGLVQPGGSLRLSCAVSGFALSNHGMSWVRRAPGKGLEWVSGIVYSGSTYYAASVKGRFTISRDNSRNTLYLQMNSLRPEDTAIYYCSAHGGESDVWGQGTTVTVSSASGGGGSGGRASGGGGSDIVMTQTPLSLSVTPGQPASISCKSSQSLLRNDGKTPLYWYLQKAGQPPQLLIYEVSNRFSGVPDRFSGSGSGTDFTLKISRVEAEDVGAYYCMQNIQFPSFGGGTKLEIKTTTPAPRPPTPAPTIASQPLSLRPEACRPAAGGAVHTRGLDFACDIYIWAPLAGTCGVLLLSLVITLYCKRGRKKLLYIFKQPFMRPVQTTQEEDGCSCRFPEEEEGGCELRVKFSRSADAPAYKQGQNQLYNELNLGRREEYDVLDKRRGRDPEMGGKPRRKNPQEGLYNELQKDKMAEAYSEIGMKGERRRGKGHDGLYQGLSTATKDTYDALHMQALPPR
notes: also called HU13-58ZB
JNL binding assay, ratio to K562; K562-BCMA [1]: 3.17 ratio | JNL binding assay, ratio to K562; NCI-H929 [1]: 2.78 ratio | JNL binding assay, ratio to K562; RPMI 8226 [1]: 3.36 ratio | Proliferation CD3, ratio to no target; K562-BCMA [1]: 2.9 ratio | Proliferation CD3, ratio to no target; KMS11-luc [1]: 2.76 ratio | Proliferation CD3, ratio to no target; NCI-H929 [1]: 2.98 ratio | Proliferation CD3, ratio to no target; RPMI 8226 [1]: 3.27 ratio | Proliferation CD4, ratio to no target; K562-BCMA [1]: 3.42 ratio | Proliferation CD4, ratio to no target; KMS11-luc [1]: 2.94 ratio | Proliferation CD4, ratio to no target; NCI-H929 [1]: 3.41 ratio | Proliferation CD4, ratio to no target; RPMI 8226 [1]: 3.66 ratio | Proliferation CD8, ratio to no target; K562-BCMA [1]: 1.51 ratio | Proliferation CD8, ratio to no target; KMS11-luc [1]: 2.11 ratio | Proliferation CD8, ratio to no target; NCI-H929 [1]: 1.76 ratio | Proliferation CD8, ratio to no target; RPMI 8226 [1]: 2.12 ratio | % CAR+ (BCMA-Fc detection) [2]: 23.4%
